This experiment concerns the target DS-SOSIP.664 trimer (BG505) (HIV-1 BG505 (clade A)). The experiment can be described thus: SPR. (Surface plasmon resonance follows binding to a sensor surface in real time, without labels.)

The results in this text go back to PMC5798227.

2-domain soluble CD4 (receptor) came in with a Kd of 8 nM.

As a reminder, the Kd is the equilibrium constant for the complex coming apart. Read a low Kd as tighter binding.
